Paper PMC3919264, “The crystal structure and biochemical characterization of Kif15: a bifunctional molecular motor involved in bipolar spindle formation and neuronal development” (Acta Crystallographica Section D: Biological Crystallography, 2013)

Target: taxol-polymerized microtubules from bovine brain tubulin (bovine (purified from bovine brain), UniProt Q6B856 1-445)
Experiment: cell-based or functional assay

B1: Homo sapiens Kif15 motor domain with cover strand and neck linker (Kif15 1-375) (domain or fragment, human, UniProt Q9NS87 1-375, looked up)
chain: MAPGCKTELRSVTNGQSNQPSNEGDAIKVFVRIRPPAERSGSADGEQNLCLSVLSSTSLRLHSNPEPKTFTFDHVADVDTTQESVFATVAKSIVESCMSGYNGTIFAYGQTGSGKTFTMMGPSESDNFSHNLRGVIPRSFEYLFSLIDREKEKAGAGKSFLCKCSFIEIYNEQIYDLLDSASAGLYLREHIKKGVFVVGAVEQVVTSAAEAYQVLSGGWRNRRVASTSMNRESSRSHAVFTITIESMEKSNEIVNIRTSLLNLVDLAGSERQKDTHAEGMRLKEAGNINRSLSCLGQVITALVDVGNGKQRHVCYRDSKLTFLLRDSLGGNAKTAIIANVHPGSRCFGETLSTLNFAQRAKLIKNKAVVNEDTQG
- MT activation of Mant-ADP release, stopped flow, 25°C, various MT concentrations with chasing Mg2+-ATP (MTs here from pig brain tubulin; preliminary data): ~1000 fold
